Measurements: paper PMC2761005, “Three-Dimensional Structure of N-Terminal Domain of DnaB Helicase and Helicase-Primase Interactions in Helicobacter pylori” (PLoS ONE, 2009)

B1: H. pylori DnaB helicase, full length (enzyme)
chain: MDHLKHLQQLQNIERIVLSGIVLANHKIEEVHSVLEPSDFYYPPNGLFFEIALKLHEEDCPIDENFIRQKMPKDKQIKEEDLVAIFAASPIDNIEAYVEEIKNASIKRKLFGLANTIREQALESAQKSSDILGAVEREVYALLNGSTIEGFRNIKEVLESAMDLITENQRKGSLEVTGIPTGFVQLDNYTSGFNKGSLVIIGARPSMGKTSLMMNMVLSALNDDRGVAVFSLEMSAEQLALRALSDLTSINMHDLESGRLDDDQWENLAKCFDHLSQKKLFFYDKSYVRIEQIRLQLRKLKSQHKELGIAFIDYLQLMSGSKATKERHEQIAEISRELKTLARELEIPIIALVQLNRSLENRDDKRPILSDIKDSGGIEQDADIVLFLYRGYIYQMRAEDNKIDKLKKEGKIEEAQELYLKVNEERRIHKQNGSIEEAEIIVAKNRNGATGTVYTRFNAPFTRYEDMPIDSHLEEGQETKVDYDIVTT
B2: N-terminal domain with longer linker (NTDL) of H. pylori DnaB helicase (residues 1-144) (domain or fragment)
chain: MDHLKHLQQLQNIERIVLSGIVLANHKIEEVHSVLEPSDFYYPPNGLFFEIALKLHEEDCPIDENFIRQKMPKDKQIKEEDLVAIFAASPIDNIEAYVEEIKNASIKRKLFGLANTIREQALESAQKSSDILGAVEREVYALLN
B3: N-terminal domain (NTD) of H. pylori DnaB helicase (residues 1-121) (domain or fragment, UniProt O25916 1-121, looked up)
chain: MDHLKHLQQLQNIERIVLSGIVLANHKIEEVHSVLEPSDFYYPPNGLFFEIALKLHEEDCPIDENFIRQKMPKDKQIKEEDLVAIFAASPIDNIEAYVEEIKNASIKRKLFGLANTIREQA
notes: Cloned NcoI/XhoI into pET 28a; also called NTD of HpDnaB; source: E. coli BL21 (DE3), purified (Ni-NTA, Superdex-75 gel filtration); not shown: His6, C-terminal, kept

Tests used:
[1] = target: C-terminal domain (CTD) of H. pylori DnaG primase (H. pylori) (UniProt P56064); test: SPR; Biacore 2000, 25°C; 750 RU of CTD of HpDnaG amine-coupled on a CM4 chip; helicase samples (10 µM) injected at 20 µl/min in 10 mM Hepes pH 7.4, 150 mM NaCl, 3 mM EDTA, 0.005% P20
Sequence of C-terminal domain (CTD) of H. pylori DnaG primase (H. pylori) (P56064 whole entry, the tested form may be a part): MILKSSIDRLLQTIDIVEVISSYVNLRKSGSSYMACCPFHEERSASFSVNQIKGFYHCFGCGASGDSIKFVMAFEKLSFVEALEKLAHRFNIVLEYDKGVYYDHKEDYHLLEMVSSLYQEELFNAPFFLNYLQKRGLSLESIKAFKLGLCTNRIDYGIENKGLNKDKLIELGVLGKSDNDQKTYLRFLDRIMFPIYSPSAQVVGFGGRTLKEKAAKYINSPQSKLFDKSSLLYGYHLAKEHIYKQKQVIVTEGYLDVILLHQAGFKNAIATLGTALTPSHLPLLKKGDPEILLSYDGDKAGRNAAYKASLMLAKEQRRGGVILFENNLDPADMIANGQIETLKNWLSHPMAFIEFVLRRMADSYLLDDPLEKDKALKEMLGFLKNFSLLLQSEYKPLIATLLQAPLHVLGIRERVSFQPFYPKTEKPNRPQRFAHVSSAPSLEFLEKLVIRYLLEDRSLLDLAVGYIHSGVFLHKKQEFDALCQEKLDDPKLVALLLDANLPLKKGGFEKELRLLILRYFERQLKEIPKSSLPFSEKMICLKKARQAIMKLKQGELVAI

[2] = target: the molecule itself; test: SEC; Hi Load superdex-75 16/60 column, 20 mM Tris.Cl pH 7.5, 100 mM NaCl, 1 mM EDTA, 5 mM βME; mass deduced from a plot of gel filtration standards

Binder	Kd [1]	stoichiometry N [2]
B1	2250 nM	
B2	110 nM	
B3		2
